From patent publication CN101228187A come the findings set out here.

Test [1] concerns the target T1, FRHSVV peptide, common epitope of mutant p53 (biotinylated) (human). Nature of the test: BIAcore (SPR), data not shown.
For test [2], the target named is T1, FRHSVV peptide, common epitope of …. Nature of the test: BIAcore (SPR), biotinylated peptide on streptavidin SA chip, scFv injected, 1:1 Langmuir model. (In general: SPR reads the build-up and loss of mass on a sensor chip optically.)

A word on the Kd: it is a measure of binding affinity in units of concentration. Read a high Kd as weaker binding.

B1: A6 scFv (scFv)
scFv: VQLLESGGGLVQPGGSPRLSCAASGFTFSGYWMHWVRQAPGKGLEWVSEISGSGDSTHYGDSVKGRFTISRDNSKNTLYLQMNSLRAEDTAVYYCARGRNGSLDYWGQGTLVTVSSGSAGGGGSGGGGSGGGGSDIVLTQPPSASGTPGQRVTISCTGGRFNIGDYAVNWYQQLPGKAPKLLIYDNDRRPSGVSDRFSGSKSGTSASLAISGLRSEDEADYYCAAWDDSLDGLVFGGGTQLTV
In test [1], B1 came in with a Kd of 23 nM.

B2: F2 scFv (scFv)
scFv: VQLLESGGGLVQPGGSLRLSCAASGFTFSGYWMHWVRQAPGKGLEWVSEISGSGDSTHYGDSVKGRFTISRDNSKNTLYLQMNSLRAEDTAVYYCARGRNGSLDYWGQGTLVTVSSGSAGGGGSGGGGSGGGGSDIVLTQPPSASGTPGQRVTISCSGTSSNIGADYDVHWYQQLPGKAPKLLIYDNNKRPSGVSDRFSGSKSGTSASLAISGLRSEDEADYYCAAWDSSLSSVVFGGGTQLTV
In test [2], B2 gave a Kd of 11 nM. This counts as double-digit nanomolar.
